Reference: article PMC11379828

T1: MBP-EFD (Arabidopsis thaliana, UniProt Q9M389 1-323)
T1 sequence: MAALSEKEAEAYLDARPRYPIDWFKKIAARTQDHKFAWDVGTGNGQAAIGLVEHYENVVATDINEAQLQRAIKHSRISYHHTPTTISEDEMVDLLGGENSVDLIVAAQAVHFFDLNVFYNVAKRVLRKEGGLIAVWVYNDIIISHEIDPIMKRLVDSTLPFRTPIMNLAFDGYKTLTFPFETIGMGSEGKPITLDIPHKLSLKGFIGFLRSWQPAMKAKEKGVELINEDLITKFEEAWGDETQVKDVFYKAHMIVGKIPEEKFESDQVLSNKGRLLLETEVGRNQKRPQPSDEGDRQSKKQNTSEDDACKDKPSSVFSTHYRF

T2: MBP-EFD (1-260 aa) (Arabidopsis thaliana, UniProt Q9M389 1-260)
T2 sequence: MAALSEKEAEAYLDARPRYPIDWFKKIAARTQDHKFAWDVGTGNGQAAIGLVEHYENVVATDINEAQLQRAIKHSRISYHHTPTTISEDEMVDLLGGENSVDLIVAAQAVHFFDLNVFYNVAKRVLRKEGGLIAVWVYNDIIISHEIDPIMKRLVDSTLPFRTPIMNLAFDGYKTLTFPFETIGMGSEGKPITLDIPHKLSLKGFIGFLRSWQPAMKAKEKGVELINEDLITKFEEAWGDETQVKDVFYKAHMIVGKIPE


Experiments:
MBP-EFD = molecular target: T1, MBP-EFD; test: EMSA
MBP-EFD (1-260 aa) = molecular target: T2, MBP-EFD (1-260 aa); test: EMSA

| Binder | binding result (MBP-EFD) | binding result (MBP-EFD (1-260 aa)) |
| --- | --- | --- |
| HB21 probe, unmethylated (HB21+1410) (dsDNA) DNA 1: ATCCTCTGTGACCATTGAAGCCAATCATACGACACCGTTTTTTGGAGATTACGACATCGGATTTGACGGTGAGGCTGACGAG DNA 2: CTCGTCAGCCTCACCGTCAAATCCGATGTCGTAATCTCCAAAAAACGGTGTCGTATGATTGGCTTCAATGGTCACAGAGGAT | binds | binds |
| HB21 probe, methylated (HB21+1410) (dsDNA, 5-methylcytosine, positions not given) DNA 1: ATCCTCTGTGACCATTGAAGCCAATCATACGACACCGTTTTTTGGAGATTACGACATCGGATTTGACGGTGAGGCTGACGAG DNA 2: CTCGTCAGCCTCACCGTCAAATCCGATGTCGTAATCTCCAAAAAACGGTGTCGTATGATTGGCTTCAATGGTCACAGAGGAT |  | binds |
